Measurements as given in US20040072319A1, “Molecules that modulate ubiquintin-dependent proteolysis and methods for identifying same” (priority 2003, published 2004).
pKd: −log10 of the molar value.

Columns and labels:
[1] = target: Cdc4 (yeast F-box protein, recombinant, expressed in baculovirus-infected insect cells) (yeast) (UniProt P07834); test: equilibrium binding, fluorescence polarization
[2] = target: T1, Skp1-Cdc4 complex (yeast, UniProt P07834 1-779; P52286 1-194, limits assumed); test: fluorescence polarization
T1 construct: Purified complex (Gst removed by TEV, size exclusion) for fluorescence polarization and SPOTS arrays; also called Cdc4/Skp1; cdc4/skp1 complex
Target sequence in this assay (P52286 whole entry, one chain of several): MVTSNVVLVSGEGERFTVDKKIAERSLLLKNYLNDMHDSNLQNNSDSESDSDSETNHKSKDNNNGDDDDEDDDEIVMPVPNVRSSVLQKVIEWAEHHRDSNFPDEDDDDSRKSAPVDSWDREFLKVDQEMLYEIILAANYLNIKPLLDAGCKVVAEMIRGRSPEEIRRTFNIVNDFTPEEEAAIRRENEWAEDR

[3] = target: T1, Skp1-Cdc4 complex; test: fluorescence polarization, 5 nM fluorescein-labeled peptide, Cdc4/Skp1 titrated
Target sequence in this assay (P07834 whole entry, chain 1 of 2): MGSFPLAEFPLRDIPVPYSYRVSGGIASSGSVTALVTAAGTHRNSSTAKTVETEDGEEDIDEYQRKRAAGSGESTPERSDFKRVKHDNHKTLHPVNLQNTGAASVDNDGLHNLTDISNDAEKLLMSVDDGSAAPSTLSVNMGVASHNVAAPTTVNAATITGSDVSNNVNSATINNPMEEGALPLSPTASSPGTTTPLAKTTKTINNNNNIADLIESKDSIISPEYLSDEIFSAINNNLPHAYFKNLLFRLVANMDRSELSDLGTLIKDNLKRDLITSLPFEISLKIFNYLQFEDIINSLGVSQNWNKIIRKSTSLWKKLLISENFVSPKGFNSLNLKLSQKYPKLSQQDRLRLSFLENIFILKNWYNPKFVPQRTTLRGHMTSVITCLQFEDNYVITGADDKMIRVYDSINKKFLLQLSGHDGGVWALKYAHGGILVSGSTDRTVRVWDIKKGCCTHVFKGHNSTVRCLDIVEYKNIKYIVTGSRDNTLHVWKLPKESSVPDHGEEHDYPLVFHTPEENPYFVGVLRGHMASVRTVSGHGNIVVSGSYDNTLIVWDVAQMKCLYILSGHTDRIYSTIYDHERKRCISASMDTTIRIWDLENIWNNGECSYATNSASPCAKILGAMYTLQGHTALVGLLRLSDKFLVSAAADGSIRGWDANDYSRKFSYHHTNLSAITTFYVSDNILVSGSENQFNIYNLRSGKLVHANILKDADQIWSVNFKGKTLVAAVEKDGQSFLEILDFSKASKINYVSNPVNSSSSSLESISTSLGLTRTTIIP
Target sequence in this assay (P52286 whole entry, chain 2 of 2): as the sequence (P52286 whole entry, one chain of several) above

[4] = target: Cdc4 (yeast F-box protein, recombinant, expressed in baculovirus-infected insect cells) (yeast) (UniProt P07834); test: equilibrium binding
[5] = target: Cdc4 (yeast F-box protein, recombinant, expressed in baculovirus-infected insect cells) (yeast) (UniProt P07834); test: equilibrium binding (Table in FIG. 3)

Sequence of Cdc4 (yeast F-box protein, recombinant, expressed in baculovirus-infected insect cells) (yeast) (P07834 whole entry): as the sequence (P07834 whole entry, chain 1 of 2) above

Row | fold lower affinity (against the phosphothreonine cyclin E peptide) [1] [fold] | fold lower affinity (against the phosphothreonine peptide) [2] [fold] | pKd [3] | pKd [4] | pKd [5] | Substance
1 | 6 | 6 |  |  |  | CycEpS-9mer GLLpSPPQSG (peptide)
2 |  |  | 6.05 | 6.12 |  | Cdc 16 peptide LSKNLLpTPQEEWD
3 |  |  | 6.06 |  | 6.17 | Gcn4-9mer FLPpTPVLED (peptide)
